Assay results published in publication PMC9234269.

Biological target: Aβ1–42 fibrils (sonicated, immobilized) (human) (UniProt P05067)
Experiment: ELISA; sonicated Aβ1–42 fibrils coated on a high binding plate (50 μl of 2.5 μg/ml, carbonate buffer pH 9.6, overnight 8°C); blocked with 2% BSA in PBS pH 7.4; chaperones in 2% BSA up to 5,000 nM, 2 h at room temperature; detected with polyclonal anti-6×His; bound amount estimated from standard curves of chaperone deposited directly (0–100 nM)

Substance	stoichiometry N (Aβ1–42 monomers per chaperone molecule)
Drosophila HSP10 (natural protein)	70
GroES (from UniProt P0A6F9 1-97) (natural protein)	1400
Human HSP10 (from UniProt P61604 3-102) (natural protein)	800
